{"source": "paper PMC11907993", "about": "“Rare but specific: 5-bp composite motifs define SMAD binding in BMP signaling”", "binders": {"B1": {"name": "pGC-SBE/SBE heterocomposite, sense SBE (dsDNA)", "DNA 1": "ATATGGCGCCAACTTGTCTGATATA", "DNA 2": "TATATCAGACAAGTTGGCGCCATAT"}, "B2": {"name": "pGC-SBE+ (dsDNA)", "DNA 1": "ATATGGCGCCATAT", "DNA 2": "ATATGGCGCCATAT"}, "B3": {"name": "pGC-SBE/SBE heterocomposite, inverted SBE (dsDNA)", "DNA 1": "ATATAGTCTGAACTTGGCGCCATAT", "DNA 2": "ATATGGCGCCAAGTTCAGACTATAT"}, "B4": {"name": "npGC-SBE+ (dsDNA)", "DNA 1": "ATATGGCTCCATAT", "DNA 2": "ATATGGAGCCATAT"}, "B5": {"name": "SBE+ (dsDNA)", "DNA 1": "ATATGTCTGATAT", "DNA 2": "ATATCAGACATAT"}}, "key": {"[1]": {"biological_target": "T1, SMAD3 MH1 (human (Fig. 1/3 legends), UniProt P84022 10-136)", "T1 sequence (P84022 10-136)": "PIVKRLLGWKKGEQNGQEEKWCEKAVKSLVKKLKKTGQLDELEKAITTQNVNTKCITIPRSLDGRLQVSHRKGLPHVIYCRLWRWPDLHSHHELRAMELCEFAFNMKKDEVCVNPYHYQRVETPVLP", "experiment": "EMSA; EMSA: 7.5 nM Cy5-dsDNA, 200 mM Tris pH 7.2, 100 mM NaCl, 2 mM TCEP, 15 min on ice; 6% PAGE in TG buffer, 4 °C; Hill fit, n = 2", "details": "protein: recombinant; tags: N-terminal His tag cleaved (TEV or 3C); chain copies: 2; label: 5'-Cy5"}, "[2]": {"biological_target": "SMAD4 MH1 (human (Fig. 1 legend), UniProt Q13485 18-142)", "sequence (Q13485 18-142)": "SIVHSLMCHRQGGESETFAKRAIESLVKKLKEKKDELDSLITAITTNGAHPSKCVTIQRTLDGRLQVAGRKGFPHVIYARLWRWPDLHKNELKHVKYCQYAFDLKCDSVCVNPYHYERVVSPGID", "experiment": "EMSA; EMSA: 7.5 nM Cy5-dsDNA, 200 mM Tris pH 7.2, 100 mM NaCl, 2 mM TCEP, 15 min on ice; 6% PAGE in TG buffer, 4 °C; Hill fit, n = 2", "details": "protein: recombinant; tags: N-terminal His tag cleaved (TEV or 3C); label: 5'-Cy5"}, "[3]": {"biological_target": "T1, SMAD3 MH1", "experiment": "EMSA; Hill h = 1.80 ± 0.23; double binding; EMSA: 7.5 nM Cy5-dsDNA, 200 mM Tris pH 7.2, 100 mM NaCl, 2 mM TCEP, 15 min on ice; 6% PAGE in TG buffer, 4 °C; Hill fit, n = 2", "details": "protein: recombinant; tags: N-terminal His tag cleaved (TEV or 3C); chain copies: 2; label: 5'-Cy5"}, "[4]": {"biological_target": "T1, SMAD3 MH1", "experiment": "EMSA; similar to sense SBE; EMSA: 7.5 nM Cy5-dsDNA, 200 mM Tris pH 7.2, 100 mM NaCl, 2 mM TCEP, 15 min on ice; 6% PAGE in TG buffer, 4 °C; Hill fit, n = 2", "details": "protein: recombinant; tags: N-terminal His tag cleaved (TEV or 3C); chain copies: 2; label: 5'-Cy5"}}}
{"binder": "B1", "values": [{"measurement": "binding result", "setting": "[1]", "value": "binds"}]}
{"binder": "B2", "values": [{"measurement": "Kd", "setting": "[2]", "value": "886 ± 274", "unit": "nM"}, {"measurement": "Kd", "setting": "[3]", "value": "293 ± 32", "unit": "nM"}]}
{"binder": "B3", "values": [{"measurement": "binding result", "setting": "[4]", "value": "binds"}]}
{"binder": "B4", "values": [{"measurement": "Kd", "setting": "[1]", "value": "660 ± 280", "unit": "nM"}, {"measurement": "Kd", "setting": "[2]", "value": "1340 ± 744", "unit": "nM"}]}
{"binder": "B5", "values": [{"measurement": "Kd", "setting": "[1]", "value": "366 ± 29", "unit": "nM"}, {"measurement": "Kd", "setting": "[2]", "value": "919 ± 70", "unit": "nM"}]}
